# Test results as given in IntAct's records for PubMed 22247544.
# B1: Corticotropin-releasing factor receptor 1 (Homo sapiens), P34998 (parent)
# chain: MGGHPQLRLVKALLLLGLNPVSASLQDQHCESLSLASNISGLQCNASVDLIGTCWPRSPAGQLVVRPCPAFFYGVRYNTTNNGYRECLANGSWAARVNYSECQEILNEEKKSKVHYHVAVIINYLGHCISLVALLVAFVLFLRLRSIRCLRNIIHWNLISAFILRNATWFVVQLTMSPEVHQSNVGWCRLVTAAYNYFHVTNFFWMFGEGCYLHTAIVLTYSTDRLRKWMFICIGWGVPFPIIVAWAIGKLYYDNEKCWFGKRPGVYTDYIYQGPMILVLLINFIFLFNIVRILMTKLRASTTSETIQYRKAVKATLVLLPLLGITYMLFFVNPGEDEVSRVVFIYFNSFLESFQGFFVSVFYCFLNSEVRSAIRKRWHRWQDKHSIRARVARAMSIPTSPTRVSFHSIKQSTAV
# Variants of: B1
# Conditions: with GNAI2, P04899-1
# GNAI2, P04899-1, sequence (P04899 whole entry): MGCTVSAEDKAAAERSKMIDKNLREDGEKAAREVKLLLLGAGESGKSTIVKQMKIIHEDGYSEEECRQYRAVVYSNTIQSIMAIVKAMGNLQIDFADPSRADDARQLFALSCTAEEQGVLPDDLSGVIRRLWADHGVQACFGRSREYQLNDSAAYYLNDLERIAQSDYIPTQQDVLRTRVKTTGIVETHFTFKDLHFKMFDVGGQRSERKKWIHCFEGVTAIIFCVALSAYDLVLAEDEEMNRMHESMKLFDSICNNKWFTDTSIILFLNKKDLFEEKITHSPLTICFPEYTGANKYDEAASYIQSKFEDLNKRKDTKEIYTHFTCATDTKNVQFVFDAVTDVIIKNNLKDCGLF
row,effect of a mutation on the interaction,Variant
1,decreasing interaction strength,R292A
2,decreasing interaction strength,K314A
